PMC3763426, “Genetic and structural validation of Aspergillus fumigatus N-acetylphosphoglucosamine mutase as an antifungal target” (Bioscience Reports, 2013)

What was measured:
[1] = target: T1, AfAGM1 (A. fumigatus N-acetylphosphoglucosamine mutase) (Aspergillus fumigatus, UniProt Q4WJF0, DEL85-101); test: direct HPAEC-PAD enzyme assay, […] Glc-1P; assay type: biochemical
T1 construct: gene AFUA_1G06210; deletion of VSSYGTFDGGMKGEFAD, residues 85–101 of XP_750370 (likely alternative splicing); GST tag cleaved; pSer69
T1 sequence (Q4WJF0 entry or part of it DEL85-101): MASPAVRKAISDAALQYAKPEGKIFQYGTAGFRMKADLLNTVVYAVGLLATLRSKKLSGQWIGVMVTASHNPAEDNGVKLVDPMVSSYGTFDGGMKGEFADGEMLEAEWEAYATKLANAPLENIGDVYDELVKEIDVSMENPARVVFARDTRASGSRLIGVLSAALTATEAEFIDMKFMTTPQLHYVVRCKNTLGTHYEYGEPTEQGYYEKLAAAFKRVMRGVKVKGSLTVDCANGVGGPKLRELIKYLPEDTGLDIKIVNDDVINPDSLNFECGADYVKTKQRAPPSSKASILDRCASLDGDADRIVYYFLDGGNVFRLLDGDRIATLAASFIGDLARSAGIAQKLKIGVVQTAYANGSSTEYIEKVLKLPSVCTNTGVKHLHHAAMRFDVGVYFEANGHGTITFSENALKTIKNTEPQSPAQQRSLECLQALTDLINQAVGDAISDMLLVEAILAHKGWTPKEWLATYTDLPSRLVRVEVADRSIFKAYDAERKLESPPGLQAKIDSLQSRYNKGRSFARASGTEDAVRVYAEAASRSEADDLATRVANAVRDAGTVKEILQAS

[2] = target: T1, AfAGM1 (A. fumigatus N-acetylphosphoglucosamine mutase); test: enzyme inhibition kinetics, Lineweaver–Burk plot; assay type: biochemical
[3] = test system: CC(=O)N[C@H]1C(O)O[C@H](COP(=O)(O)O)[C@@H](O)[C@@H]1O; test: purified protein; details: Mg2+
[4] = test system: O=P(O)(O)O[C@H]1O[C@H](CO)[C@@H](O)[C@H](O)[C@H]1O; test: purified protein; details: Mg2+

## NC(Cc1cc(O)c(O)cc1O)C(=O)O (racemic) [compound 3, 6-hydroxy-DL-DOPA]
[1]
  IC50: 58 ± 4 µM

## Nc1ccc(O)c2c1C(=O)c1c(O)ccc(N)c1C2=O [compound 1, 1,5-diamino-4,8-dihydroxyanthraquinone]
[2]
  Ki: 300 ± 13 µM

## Cc1nc(/N=N/c2ccc(C(=O)O)cc2)c(COP(=O)(O)O)c(C=O)c1O [compound 4, tri-sodium 4-[(2z)-2-[4-formyl-6-metyl-5-oxo-3-(phosphonatooxymetyl)-pyridin-2-ylidene] hydrazinyl] benzoate]
[1]
  IC50: 7.1 ± 0.2 µM

## AfAGM1 (A. fumigatus N-acetylphosphoglucosamine mutase) (Aspergillus fumigatus Af293; DEL85-101)
[3]
  Km: 25 ± 8 µM
  kcat: 0.21 s⁻¹
  kcat/Km: 8400 M⁻¹ s⁻¹
[4]
  Km: 1200 ± 100 µM
  kcat: 37.6 s⁻¹
  kcat/Km: 31300 M⁻¹ s⁻¹
